Test results: PMC4102840 (Journal of Biomedical Research, 2014)

Biological target: T1, cyan fluorescent protein (CFP)-SR-A (class A scavenger receptor) (human, UniProt P21757 1-451)
T1 sequence (looked up): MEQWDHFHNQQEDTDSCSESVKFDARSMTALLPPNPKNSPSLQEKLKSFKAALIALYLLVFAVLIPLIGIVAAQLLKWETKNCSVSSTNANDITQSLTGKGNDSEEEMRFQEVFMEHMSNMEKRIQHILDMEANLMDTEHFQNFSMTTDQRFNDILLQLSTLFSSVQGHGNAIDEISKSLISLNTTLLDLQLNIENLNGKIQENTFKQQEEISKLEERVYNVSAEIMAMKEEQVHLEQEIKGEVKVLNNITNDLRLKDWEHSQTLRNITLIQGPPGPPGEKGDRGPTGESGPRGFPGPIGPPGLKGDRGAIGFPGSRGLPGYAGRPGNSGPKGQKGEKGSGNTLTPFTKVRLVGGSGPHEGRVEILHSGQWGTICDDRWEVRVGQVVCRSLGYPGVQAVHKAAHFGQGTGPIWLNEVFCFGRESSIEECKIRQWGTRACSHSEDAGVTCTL
Experiment: FRET or BRET

FR (mean FRET ratio): 2.17
B1: yellow fluorescent protein (YFP)-GRP78 (78 kDa glucose-regulated protein) (natural protein)
chain: not shown
